Data from PMC7332060, “Characterizing the actin-binding ability of Zasp52 and its contribution to myofibril assembly” (PLoS ONE, 2020).

B1: α-actinin (Cytoskeleton AT-01) (natural protein)
chain: MNQIEPGVQYNYVYDEDEYMIQEEEWDRDLLLDPAWEKQQRKTFTAWCNSHLRKAGTQIENIEEDFRNGLKLMLLLEVISGERLPKPDRGKMRFHKIANVNKALDYIASKGVKLVSIGAEEIVDGNVKMTLGMIWTIILRFAIQDISVEETSAKEGLLLWCQRKTAPYRNVNIQNFHTSWKDGLGLCALIHRHRPDLIDYSKLNKDDPIGNINLAMEIAEKHLDIPKMLDAEDIVNTPKPDERAIMTYVSCFYHAFAGAEQAETAANRICKVLAVNQENERLMEEYERLASELLEWIRRTIPWLENRTPEKTMKAMQKKLEDFRDYRRKHKPPKVQEKCQLEINFNTLQTKLRISNRPAFMPSEGKMVSDAGAWQRLEQAEKGYEEWLLNEIRRLERLEHLAEKFRQKASTHETWAYGKEQILLQKDYESASLTEVRALLRKHEAFESDLAAHQDRVEQIAAIAQELNELDYHDAVNVNDRCQKICDQWDRLGTLTQKRREALERTEKLLETIDQLHLEFAKRAAPFNNWMEGAMEDLQDMFIVHSIEEIQSLITAHEQFKATLPEADGERQSIMAIQNEVEKVIQSYNIRISSSNPYSTVTMDELRAKWDKVKQLVPIRDQSLQEELARQHANERLRRQFAAQANAIGPWIQNKMEEIARSSIQITGALEDQMNQLKQYEHNIINYKNNIDKLEGDHQLIQEALVFDNKHTNYTMEHIRVGWELLLTTIARTINEVETQILTRDAKGITQEQMNEFRASFNHFDRRKNGLMDHEDFRACLISMGYDLGEAEFARIMTLVDPNGQGTVTFQSFIDFMTRETADTDTAEQVIASFRILASDKPYILAEELRRELPPDQAQYCIKRMPAYSGPGSVPGALDYTAFSSALYGESDL
B2: GST-Zasp52-PK (natural protein)
chain: MAQPQLLQIKLSRFDAQPWGFRLQGGTDFAQPLLVQKVNAGSLSEQAGLQPGDAVVKINDVDVFNLRHKDAQDIVVRSGNNFVITVQRGGSTWRPHVTPTGNVPQPNSPYLQTVTKTSLAHKQQDSQHIGCGYNNAARPFSNGGDGGVKSIVNKQYNTPVGIYSDESIAETLSAQAEVLAGGVLGVNFKKNEKEYQGDRSEVLKFLREEETGQSTPAFGNSHYEHDAPQQLQQPQQQYNQHQQHYHQQQQQQQSSTTRHVSAPVNSPKPPSTGGLPTGQNICTECERLITGVFVRIKDKNLHVECFKCATCGTSLKNQGYYNFNNKLYCDIHAKQAAINNPPTGTEGYVPVPIKPNTKLSASTISSALNSHGYGGHSNGYSNGNSTPAPAPV

Tests used:
[1] = target: B2; assay: SPR; surface plasmon resonance imaging (PlexArray HT); GST-Zasp52-PK printed on gold-coated chip; G-actin or α-actinin injected; PBST running buffer; 25°C; kinetic analysis with BIAevaluation 4.1; conditions: both partners purified
[2] = target: G-actin (Cytoskeleton AKL-99) (UniProt P68135 1-377); assay: as above; conditions: both partners purified

Binder | Kd [1] | Kd [2]
B1 | 86.5 nM | 
B2 |  | 1100 nM
